Data reported in the Immune Epitope Database (IEDB).
Each block holds one sequence with its values, some of them ahead of it.

Assays:
HLA-A*01:01 = experiment: IEDB peptide-MHC binding, purified MHC/direct/fluorescence; filed as Kd, often an IC50 or EC50 that approximates it; ≥ and ≤ were set here for values at or beyond the usual limits of such assays
HLA-A*02:01 [1] = experiment: as above
HLA-A*03:01 = experiment: as above
HLA-A*11:01 = experiment: as above
HLA-A*26:01 = experiment: as above
HLA-A*31:01 = experiment: as above
HLA-A*69:01 = experiment: as above
HLA-B*07:02 = experiment: as above
HLA-B*08:02 = experiment: as above; conditions: source organism: Burkholderia mallei ATCC 23344
HLA-B*15:01 = experiment: as above
HLA-B*15:17 = experiment: as above
HLA-B*18:01 = experiment: as above; conditions: source organism: Burkholderia mallei
HLA-B*27:05 = experiment: as above
HLA-B*38:01 = experiment: as above; conditions: source organism: Burkholderia mallei ATCC 23344
HLA-B*39:01 [2] = experiment: as above; conditions: source organism: Burkholderia mallei ATCC 23344
HLA-B*40:01 = experiment: as above; conditions: source organism: Burkholderia mallei
HLA-B*46:01 [3] = experiment: as above
HLA-B*48:01 = experiment: as above
HLA-B*51:01 = experiment: as above; conditions: source organism: Burkholderia mallei
HLA-B*57:01 [4] = experiment: as above
HLA-B*58:01 [5] = experiment: as above
HLA-B*15:02 [6] = experiment: IEDB peptide-MHC binding, purified MHC/competitive/fluorescence; filed as Kd, often an IC50 or EC50 that approximates it; ≥ and ≤ were set here for values at or beyond the usual limits of such assays; conditions: source organism: Homo sapiens
HLA-B*46:01 [7] = experiment: as above; conditions: source organism: Homo sapiens
HLA-A*02:01 [8] = experiment: IEDB peptide-MHC binding, purified MHC/competitive/radioactivity; filed as Kd, often an IC50 or EC50 that approximates it; ≥ and ≤ were set here for values at or beyond the usual limits of such assays; conditions: source organism: Homo sapiens
HLA-A*02:07 = experiment: as above; conditions: source organism: Homo sapiens
HLA-A*29:02 = experiment: as above; conditions: source organism: Homo sapiens
HLA-B*57:01 [9] = experiment: as above; conditions: source organism: Homo sapiens
HLA-B*58:01 [10] = experiment: as above; conditions: source organism: Homo sapiens
HLA-B*58:01 [11] = experiment: IEDB peptide-MHC binding, cellular MHC/competitive/fluorescence; ≥ and ≤ were set here for values at or beyond the usual limits of such assays; conditions: source organism: Human herpesvirus 4 strain B95-8
HLA-A*68:02 = experiment: IEDB peptide-MHC binding, purified MHC/direct/fluorescence; filed as Kd, often an IC50 or EC50 that approximates it; ≥ and ≤ were set here for values at or beyond the usual limits of such assays
HLA-B*08:03 = experiment: as above
HLA-B*15:02 [12] = experiment: as above
HLA-A*02:01 [13] = experiment: IEDB peptide-MHC binding, purified MHC/competitive/fluorescence; filed as Kd, often an IC50 or EC50 that approximates it; ≥ and ≤ were set here for values at or beyond the usual limits of such assays; conditions: source organism: Giardia lamblia ATCC 50803
HLA-A*02:03 = experiment: as above
HLA-A*30:01 = experiment: as above
HLA-B*08:01 = experiment: as above
HLA-B*15:09 [14] = experiment: as above; conditions: source organism: Giardia lamblia ATCC 50803
HLA-B*15:09 [15] = experiment: IEDB peptide-MHC binding, purified MHC/direct/fluorescence; filed as Kd, often an IC50 or EC50 that approximates it; ≥ and ≤ were set here for values at or beyond the usual limits of such assays; conditions: source organism: Vibrio vulnificus CMCP6
HLA-A*32:07 = experiment: IEDB peptide-MHC binding, purified MHC/competitive/fluorescence; filed as Kd, often an IC50 or EC50 that approximates it; ≥ and ≤ were set here for values at or beyond the usual limits of such assays; conditions: source organism: Vibrio vulnificus YJ016
HLA-B*15:42 = experiment: as above; conditions: source organism: Vibrio vulnificus YJ016
HLA-B*27:20 = experiment: as above; conditions: source organism: Vibrio vulnificus YJ016
HLA-B*39:01 [16] = experiment: as above; conditions: source organism: Vibrio vulnificus YJ016
HLA-B*40:13 = experiment: as above; conditions: source organism: Vibrio vulnificus YJ016
HLA-B*45:06 = experiment: as above; conditions: source organism: Vibrio vulnificus YJ016
HLA-B*83:01 = experiment: as above; conditions: source organism: Vibrio vulnificus YJ016
[17] = source organism: Burkholderia mallei
[18] = source organism: Giardia lamblia ATCC 50803
[19] = source organism: Vibrio vulnificus
[20] = source organism: Vibrio vulnificus CMCP6
[21] = source organism: Vibrio vulnificus YJ016

Sequence: AVAVARVAA
Kd (HLA-A*01:01; [17]): ≥ 20 µM
Kd (HLA-A*02:01 [1]; [17]): ≥ 20 µM
Kd (HLA-A*03:01; [17]): ≥ 20 µM
Kd (HLA-A*11:01; [17]): ≥ 20 µM
Kd (HLA-A*26:01; source organism: Burkholderia mallei ATCC 23344): ≥ 20 µM
Kd (HLA-A*31:01; [17]): ≥ 20 µM
Kd (HLA-A*69:01; [17]): ≥ 20 µM
Kd (HLA-B*07:02; [17]): 0.217 µM
Kd (HLA-B*08:02): ≥ 20 µM
Kd (HLA-B*15:01; [17]): 4.21 µM
Kd (HLA-B*15:17; [17]): ≥ 20 µM
Kd (HLA-B*18:01): ≥ 20 µM
Kd (HLA-B*27:05; [17]): ≥ 20 µM
Kd (HLA-B*38:01): ≥ 20 µM
Kd (HLA-B*39:01 [2]): ≥ 20 µM
Kd (HLA-B*40:01): ≥ 20 µM
Kd (HLA-B*46:01 [3]; [17]): ≥ 20 µM
Kd (HLA-B*48:01; [17]): ≥ 20 µM
Kd (HLA-B*51:01): ≥ 20 µM
Kd (HLA-B*57:01 [4]; [17]): ≥ 20 µM
Kd (HLA-B*58:01 [5]; [17]): ≥ 20 µM

Kd (HLA-B*15:02 [6]): 0.0039 µM
Kd (HLA-B*46:01 [7]): 0.0167 µM
Kd (HLA-A*02:01 [8]): ≥ 78.1 µM
Kd (HLA-A*02:07): ≥ 62.7 µM
Kd (HLA-A*29:02): 0.516 µM
Kd (HLA-B*57:01 [9]): ≥ 61.3 µM
Kd (HLA-B*58:01 [10]): ≥ 39.8 µM
Sequence: FIKDGSSTY

Sequence: LSIFDTSLF
IC50 (HLA-B*58:01 [11]): 5 µM

Sequence: QLKQRDALF
Kd (HLA-A*01:01; [18]): ≥ 20 µM
Kd (HLA-A*11:01; [18]): ≥ 20 µM
Kd (HLA-A*26:01; [18]): ≥ 20 µM
Kd (HLA-A*31:01; [18]): ≥ 20 µM
Kd (HLA-A*68:02; [18]): ≥ 20 µM
Kd (HLA-A*69:01; [18]): ≥ 20 µM
Kd (HLA-B*07:02; [18]): ≥ 20 µM
Kd (HLA-B*08:03; [18]): 0.17 µM
Kd (HLA-B*15:01; [18]): 0.027 µM
Kd (HLA-B*15:02 [12]; [18]): 0.029 µM
Kd (HLA-B*15:17; [18]): 0.0657 µM
Kd (HLA-B*27:05; [18]): ≥ 20 µM
Kd (HLA-B*46:01 [3]; [18]): ≥ 20 µM
Kd (HLA-B*48:01; [18]): ≥ 20 µM
Kd (HLA-B*57:01 [4]; [18]): 1.46 µM
Kd (HLA-B*58:01 [5]; [18]): ≥ 20 µM
Kd (HLA-A*02:01 [13]): ≥ 20 µM
Kd (HLA-A*02:03; [18]): ≥ 20 µM
Kd (HLA-A*30:01; [18]): ≥ 20 µM
Kd (HLA-B*08:01; [18]): 0.135 µM
Kd (HLA-B*15:09 [14]): ≥ 20 µM

Sequence: YQRALHTSI
Kd (HLA-A*01:01; [19]): ≥ 20 µM
Kd (HLA-A*02:01 [1]; [19]): ≥ 20 µM
Kd (HLA-A*03:01; [19]): ≥ 20 µM
Kd (HLA-A*11:01; [19]): ≥ 20 µM
Kd (HLA-A*26:01; [20]): ≥ 20 µM
Kd (HLA-A*31:01; [19]): ≥ 20 µM
Kd (HLA-A*68:02; [19]): ≥ 20 µM
Kd (HLA-A*69:01; [19]): ≥ 20 µM
Kd (HLA-B*07:02; [19]): 7.06 µM
Kd (HLA-B*08:03; [20]): 0.055 µM
Kd (HLA-B*15:01; [19]): 0.0962 µM
Kd (HLA-B*15:02 [12]; [20]): 0.306 µM
Kd (HLA-B*15:09 [15]): ≥ 20 µM
Kd (HLA-B*15:17; [19]): 0.13 µM
Kd (HLA-B*27:05; [19]): 2.05 µM
Kd (HLA-B*46:01 [3]; [19]): ≥ 20 µM
Kd (HLA-B*48:01; [19]): 0.0586 µM
Kd (HLA-B*57:01 [4]; [19]): ≥ 20 µM
Kd (HLA-B*58:01 [5]; [19]): ≥ 20 µM
Kd (HLA-A*02:03; [21]): 0.0021 µM
Kd (HLA-A*30:01; [21]): 1.12 µM
Kd (HLA-A*32:07): 0.454 µM
Kd (HLA-B*08:01; [21]): 0.292 µM
Kd (HLA-B*15:42): ≥ 20 µM
Kd (HLA-B*27:20): 0.0002 µM
Kd (HLA-B*39:01 [16]): 0.395 µM
Kd (HLA-B*40:13): 0.0608 µM
Kd (HLA-B*45:06): ≥ 5 µM
Kd (HLA-B*83:01): ≥ 5 µM
